# According to patent publication US20060116325A1, “Methods and compositions for inhibiting hiv-coreceptor interactions” (priority 2001, published 2006):
# Entries after “also recorded” stand apart in the source; their conditions may differ.
# Legend:
# CXCR4 [1] = target: T1, CXCR4 (Homo sapiens, UniProt P61073); test: Competition with 125I-SDF-1α binding to CEMx174 cells; set-up: host or cells: CEMx174 (174xCEM); settings: room temperature, 0.1% sodium azide, FIG. 7B, 7C
# Description: FIGS. 7A through 7C depicts the inhibition of chemokine receptor ligand binding by peptide pre-treatment. FIG. 7A. Effect of pre-treatment with peptides 15K and 15D on the binding of MIP-1β to SupT1/CCR5 cells; FIG. 7B. Effect of pre-treatment with peptides 15K and 1SD on the binding of SDF-1α to CEMx174 cells; and FIG. 7C. Effect of pre-treatment with 15K and control peptide 15GIG on the binding of SDF-1α to CEmx174 cells. Binding studies were performed as described in Materials and Methods.
# Binding assays were performed with HEK-CCR5 or HEK CXCR4 in triplicate by adding unlabeled competitor (anti-coreceptor binding peptide or control chemokine) and radiolabeled chemokine, 0.2 ng/ml (^125I-MIP-1β or SDF-1α, specific activity 2000 Ci/mmol, NEN Life Science Products) to a cell suspension (4×10^5 cells in 200 μl) in RPMI 1640 supplemented with 1% bovine serum albumin and 25 mM HEPES pH 8.0 (binding medium). Cells were then incubated at 22° C. for 40 min with continuous rotation. After incubation cells were transferred to the tubes containing 800 μl of 10% sucrose in PBS and harvested by centrifugation. The supernatant was aspirated and the cell-associated radioactivity was measured using a 1272 Wallac gamma counter. Binding assays were performed with the 174xCEM and Sup-T1 cells expressing CCR5 in duplicates by adding unlabeled competitor (peptide or control chemokine) and radiolabeled chemokine, 0.2 ng/ml (^125I-MIP-1β or ^125I-SDF-1α, specific activity 2000 Ci/mmol, NEN life Science Products) to 300 μl cell suspension (4×10^6 cells/ml) in RPMI 1640 supplemented with 1% bovine serum albumin, 0.1% sodium azide and 25 mM HEPES pH 8.0 (binding medium). Cells were then incubated at 22° C. for 30 min with continuous rotation. After incubation cells were transferred to the tubes containing 800 μl of 10% sucrose in PBS and harvested by centrifugation, the supematant was aspirated and the cell-associated radioactivity was measured using a 1272 Wallac gamma counter. The data were analyzed by nonlinear regression using the computer program GraphPad Prizm 3.0. […]
# CXCR4 [2] = target: T1, CXCR4; test: Ca2+ mobilization in THP-1 cells in response to SDF-1α (fura-2); assay type: cell-based; settings: peptide 500 μM preincubated, SDF-1α 100 ng/ml, FIG. 6
# Description: FIGS. 6A through 6D depict the effect of peptide pre-treatment on the mobilization of intracellular Ca^2+ in THP-1 cells in response to SDF-1α. Cells loaded with fura-2 were preincubated with peptide 15K (FIG. 6C), 15D (FIG. 6B) and 15CW (FIG. 6D) at a final concentration of 500 μM for 3 min prior to stimulation with SDF-1α (100 ng/ml).
# THP-1 cells (12×10^6/ml in RPMI 1640 containing 10% FSB) were loaded in the presence of 5 μM fura-2 AM (Molecular Probes, Eugene, Oreg.) at 22° C. for 30 min in the dark. Subsequently, cells were washed three times and resuspended (10^6 cells/ml) in the buffer containing 138 mM sodium chloride, 6 mM potassium chloride, 1 mM calcium chloride, 1 mM magnesium chloride, 10 mM HEPES, pH 7.4,5 mM glucose, and 0.1% bovine serum albumin. 1.93 ml of loaded cells was transferred into a quartz cuvette. 50 μl of a peptide stock solution (2×10^−2 M) was added to the cells, and after 3 min of incubation 20 μl of human SDF-1α (10 μg/ml, PeproTech) was added to a stirred cuvette. The measurements were performed using luminescence spectrophotometer LS50 B (Perkin-Elmer). Ca^2+ mobilization in the cells in response to SDF-1α was measured by analysis of the ratio of fluorescence emitted at 510 nm after sequential excitation at 340 and 380 nm.
# The increase of intracellular Ca^2+ concentration mediated by a chemokine receptor in response to a cognate chemokine is a reliable assay for measurement of chemokine agonist activity. The human monocytic cell line THP-1 expresses a high level of CXCR4 and responds well to SDF-1α stimulation (FIG. 6A), so these cells were used to determine whether peptides 15D and 15K could block the activation of CXCR4.
# HIV-1IIIB = HIV-1IIIB infection of PBMC, p24 ELISA; assay type: cell-based; settings: peptide 1 hr before HIV-1IIIB, p24 after 48 hr; FIG. 4
# Description: Peripheral blood mononuclear cells were treated with designated concentrations of peptide for a period of 1 hr prior to addition of HIV-1IIIB. After 2 hr, cells were washed, and viral replication was determined after 48 hr by analysis of p24 levels. Results are representative of 4 independent experiments.
# PBMCs were obtained from whole blood of normal donors and isolated by Ficoll-Paque Plus (Pharmacia Biotech, Piscataway, N.J.) density gradient centrifugation, and plated at a cell density of 2×10^6 cells/ml. Monocyte-derived macrophages (MDM) were generated from adherent human peripheral blood mononuclear cells by culture for 7 days with M-CSF (100 ng/ml). Cultures were maintained in RPMI-1640 medium (Life Technologies, Rockville, Md.) supplemented with 10% heat-inactivated endotoxin-free FCS (Hyclone, Logan, Utah), 10 μg/ml gentamicin, and 1 mM glutamine. Cells were treated with designated concentrations of the exemplary peptides 15K or 15D, and after 1 hr cells were infected with HIV-1IIIB (T cell tropic) or HIV-1JRFL (monocyte tropic) at an multiplicity of infection (MOI) of 0.1. After 2 hr, cells were washed, and cultured for additional 48-72 hr, followed by analysis of HIV replication as determined by quantification of accumulated p24 in the supernatant. The production of p24 was determined by conventional sandwich ELISA, using ELISA plates pre-coated with capture anti-p24 antibodies provided by the AIDS Vaccine Program (SAIC Frederick, NCI-FCRDC, Frederick, Md.). The captured p24 antigen was detected using rabbit anti-HIV-1 anti-p24 antibody, and a secondary goat anti-rabbit IgG (peroxidase-labeled) antibody. The captured p24 protein was detected using a 3,3′,5,5′-tetramethylbenzidine and hydrogen peroxide detection system (KPL Laboratories, Gaithersburg, Md.). The reaction was read spectrophotometrically at 450 nm. No cytotoxicity was detectable following treatment of PBMC with the peptides even at a concentration of 100 μg/ml.
# In view of the foregoing binding inhibition studies, and considering the homology between the 15K and 15D peptides and the CXCR4 ligand SDF-1α, it was further undertaken to determine the capacity of the synthetic peptides to inhibit CXCR4 co-receptor function. In particular, experiments were carried out to assess the ability of 15K or 15D to alter the infection of PBMCs with the T cell-tropic […] strain. […] Significant inhibition of HIV-1 infection was detected with concentrations of peptides as low as 10 ng/ml.
# CXCR4 [3] = target: T1, CXCR4; test: Binding of anti-CXCR4 antibody 12G5 to CEMx174 cells (flow cytometry); set-up: host or cells: CEMx174 (174xCEM); settings: CEMx174 cells, preincubation 60 min 22° C.; FIG. 5
# Description: FIG. 5A. Dose dependent effect of peptide 15K in comparison with SDF-1α. FIG. 5B. The comparison of the effects of 15K and 15D. FIG. 5C. The comparison of the effects of 15K and 15KS. Cells were preincubated at 22° C. with peptides at designated concentrations of SDF-1α for 60 min. Then cells were incubated with FITC-labeled anti-human CXCR4 monoclonal antibodies 12G5 for 40 min at 22° C. and washed with FACS buffer prior to flow cytometry.
# CEMx174 cells were pelleted and resuspended at 10^6 cells/ml in PBS containing 1% BSA and 0.1% sodium azide (FACS buffer). Cells were then preincubated with designated concentrations of peptides or SDF-1-α (1 μg/ml) at 22° C. for 60 min. FITC-labeled anti-human CXCR4 antibody (clone 12G5, BD PharMingen, San Diego, Calif.) was added to the cells per the manufactures instructions and further incubated at 22° C. for 40 minutes. Cells were extensively washed with FACS buffer and analyzed using a FACS Calibur flowcytometer (Becton Dickinson). HEK/CCR5 cells were suspended in Dulbecco's PBS containing 1% FCS and 0.05% NaN3 (10^4 cells in 100 μl) and incubated with or without 5 μg of MIP-1β (PeproTech, Rocky Hill, N.J.), 0.1 mM peptide 15D or 15K for 45 min at 22° C. Cells were then treated with FITC-conjugated anti-human CCR5 antibody (2D7; BD PharMingen, San Diego, Calif.), and incubated for 30 min at 22° C. Cells were washed twice, and analyzed using a FACScan flow cytometer (Becton Dickinson Immunocytometry Systems, San Jose, Calif.).
# To determine if peptides 15D and 15K interact directly with chemokine receptors the effect of these and control peptides on the binding of anti-chemokine receptor antibodies to CXCR4 and CCR5 was studied. The monoclonal antibody 12G5 recognizes a conformational extracellular epitope on CXCR4. This antibody blocks the infectivity of some X4 strains of HIV-1 and HIV-2 (Endres et al., Cell 87:745-756, 1996; Hoxie et al., J. Reprod. Immunol. 41:197-211(1998); McKnight et al., J. Virol. 74:1692-1696(1997), 19, 26). […] Further, the binding of 12G5 to CXCR4 receptor-expressing cells is prevented by anti-HIV compounds. […] 73:2752-2761, 1999. To determine the importance of the particular amino acid sequence of the inhibitory activity of the peptides. The effects of peptide 15K and the corresponding scrambled peptide 15KS on binding of 12G5 to CXCR4 was compared. […] Apparently there is a direct correlation between the ability of 15K to inhibit the anti-CXCR4 antibody binding and its ability to inhibit HIV-1 infectivity since the scrambled peptide 15KS with the same amino acid comparison has reduced ability to manifest both these activities.
# T1 sequence (P61073 whole entry): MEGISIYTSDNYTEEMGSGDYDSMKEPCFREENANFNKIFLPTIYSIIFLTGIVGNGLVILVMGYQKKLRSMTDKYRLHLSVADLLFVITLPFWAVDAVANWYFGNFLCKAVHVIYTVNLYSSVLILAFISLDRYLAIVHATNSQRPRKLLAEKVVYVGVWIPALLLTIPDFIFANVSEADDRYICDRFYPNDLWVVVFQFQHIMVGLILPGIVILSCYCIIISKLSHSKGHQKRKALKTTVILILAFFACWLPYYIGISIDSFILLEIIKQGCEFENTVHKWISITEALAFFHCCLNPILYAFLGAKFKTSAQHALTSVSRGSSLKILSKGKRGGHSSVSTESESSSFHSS
substance,measurement,setting,value
"G I G D P V T C L K S G A I A (GIGDPVTCLKSGAIA) [Peptide 15GIG, reference compound]",inhibition of SDF-1α binding to CXCR4,CXCR4 [1],significantly lower competing activity
"I R K A H C W I D R A D N N S [Peptide 15CW, reference compound]",inhibition of Ca2+ mobilization in response to SDF-1α,CXCR4 [2],less effective
"K I N S W R A D N I H C K A R (KINSWRADNIHCKAR) [Peptide 15KS, reference compound]",inhibition of T cell-tropic HIV-1 infection of PBMCs (p24),HIV-1IIIB,significantly less inhibition
same,inhibition of 12G5 antibody binding to CXCR4,CXCR4 [3],significantly less inhibitory activity; also recorded: a low level of inhibitory activity
